According to the supplement of paper PMC9112550, “Optimization of the antimicrobial peptide Bac7 by deep mutational scanning” (BMC Biology, 2022):

System: Escherichia coli TOP10
Experiment: shrunken log2 fold change of peptide-encoding DNA abundance (4.5 h post-induction vs induction); higher = less antimicrobial activity (less host growth inhibition)
Details: time post-induction: 4.5 h; library: site-saturation at positions 5, 18, 19, 20
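Note: peptides expressed intracellularly from a pBAD plasmid library in pooled LB shake-flask culture, induced with 0.3% L-arabinose, DNA abundance read by NGS, three biological replicates, DESeq2 with apeglm shrinkage.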

Sequence	shrunken log2 fold change
RRIRCRPPRLPRPRPRPVHAPRP	0.065
RRIRLRPPRLPRPRPRPGQHPRP	-0.0142
RRIRGRPPRLPRPRPRPCYRPRP	-0.0861
RRIRVRPPRLPRPRPRPNERPRP	0.0435
RRIRRRPPRLPRPRPRPVCRPRP	0.562
RRIRPRPPRLPRPRPRPGAPPRP	0.536
RRIRWRPPRLPRPRPRPKMEPRP	0.577
RRIRYRPPRLPRPRPRPNNNPRP	-0.989
RRIRERPPRLPRPRPRPPATPRP	0.35
RRIRWRPPRLPRPRPRPNQCPRP	-0.384
RRIRLRPPRLPRPRPRPYPYPRP	-0.076
RRIRYRPPRLPRPRPRPGGAPRP	0.359
RRIRTRPPRLPRPRPRPGGNPRP	-0.264
RRIRYRPPRLPRPRPRPSAVPRP	-0.175
RRIRNRPPRLPRPRPRPCENPRP	-0.0018
RRIRHRPPRLPRPRPRPCGYPRP	-0.0081
RRIRVRPPRLPRPRPRPQLNPRP	-0.292
RRIRGRPPRLPRPRPRPWVGPRP	0.12
RRIRHRPPRLPRPRPRPDATPRP	0.286
RRIRIRPPRLPRPRPRPSGTPRP	-0.0278
RRIRHRPPRLPRPRPRPHETPRP	0.0369
RRIRTRPPRLPRPRPRPTMAPRP	0.201
RRIRMRPPRLPRPRPRPPIWPRP	0.512
RRIRTRPPRLPRPRPRPLCYPRP	-0.452
RRIRCRPPRLPRPRPRPYNYPRP	-0.914

Sequence	shrunken log2 fold change
RRIRHRPPRLPRPRPRPEKLPRP	0.0208
RRIRFRPPRLPRPRPRPLADPRP	-0.0773
RRIRRRPPRLPRPRPRPMTMPRP	0.0735
RRIRLRPPRLPRPRPRPHYMPRP	-0.969
RRIRQRPPRLPRPRPRPYYWPRP	0.0316
RRIRYRPPRLPRPRPRPPRVPRP	-0.0115
RRIRIRPPRLPRPRPRPSRGPRP	0.242
RRIRERPPRLPRPRPRPNGDPRP	-0.0249
RRIRNRPPRLPRPRPRPAVFPRP	0.0636
RRIRPRPPRLPRPRPRPWGTPRP	-0.0725
RRIRIRPPRLPRPRPRPIHSPRP	-0.302
RRIRQRPPRLPRPRPRPRDQPRP	-0.0332
RRIRLRPPRLPRPRPRPWVGPRP	0.233
RRIRHRPPRLPRPRPRPKTVPRP	-0.154
RRIRGRPPRLPRPRPRPYWTPRP	-0.0522
RRIRARPPRLPRPRPRPITEPRP	-0.38
RRIRFRPPRLPRPRPRPKEHPRP	-0.357
RRIRHRPPRLPRPRPRPHKRPRP	0.0586
RRIRERPPRLPRPRPRPFFCPRP	-0.0755
RRIRGRPPRLPRPRPRPGDHPRP	0.333
RRIRGRPPRLPRPRPRPNCWPRP	0.303
RRIRERPPRLPRPRPRPHKAPRP	-0.0142
RRIRVRPPRLPRPRPRPLQSPRP	0.12
RRIRARPPRLPRPRPRPRKDPRP	0.173
RRIRYRPPRLPRPRPRPRKIPRP	-0.483

Sequence	shrunken log2 fold change
RRIRCRPPRLPRPRPRPISCPRP	-0.0979
RRIRHRPPRLPRPRPRPWGIPRP	-0.0176
RRIRLRPPRLPRPRPRPSALPRP	-0.0136
RRIRPRPPRLPRPRPRPQACPRP	-0.0282
RRIRNRPPRLPRPRPRPQWDPRP	-0.0901
RRIRWRPPRLPRPRPRPSRHPRP	0.0203
RRIRMRPPRLPRPRPRPRPMPRP	0.935
RRIRMRPPRLPRPRPRPWDRPRP	0.158
RRIRWRPPRLPRPRPRPLDDPRP	0.454
RRIRDRPPRLPRPRPRPSKWPRP	-0.196
RRIRERPPRLPRPRPRPEVRPRP	0.138
RRIRHRPPRLPRPRPRPKIMPRP	-0.811
RRIRFRPPRLPRPRPRPEINPRP	-0.00788
RRIRYRPPRLPRPRPRPNHMPRP	-0.611
RRIRGRPPRLPRPRPRPECLPRP	0.685
RRIRGRPPRLPRPRPRPSGWPRP	1.52
RRIRVRPPRLPRPRPRPNCIPRP	-0.213
RRIRTRPPRLPRPRPRPYDRPRP	-0.221
RRIRTRPPRLPRPRPRPPCAPRP	0.308
RRIRIRPPRLPRPRPRPNVKPRP	-0.163
RRIRCRPPRLPRPRPRPRTLPRP	0.209
RRIRPRPPRLPRPRPRPMVKPRP	-0.154
RRIRLRPPRLPRPRPRPCWFPRP	-0.21
RRIRIRPPRLPRPRPRPRDIPRP	-0.203
RRIRWRPPRLPRPRPRPYLEPRP	-0.112

Sequence	shrunken log2 fold change
RRIRDRPPRLPRPRPRPEYCPRP	-0.0172
RRIRTRPPRLPRPRPRPVFMPRP	-0.25
RRIRIRPPRLPRPRPRPDCNPRP	-0.164
RRIRSRPPRLPRPRPRPDTGPRP	-0.00127
RRIRYRPPRLPRPRPRPSQAPRP	-0.0185
RRIRERPPRLPRPRPRPPTEPRP	0.0778
RRIRQRPPRLPRPRPRPHLQPRP	-0.0325
RRIRCRPPRLPRPRPRPAFLPRP	-0.214
RRIRYRPPRLPRPRPRPFKSPRP	-0.0165
RRIRWRPPRLPRPRPRPFTIPRP	-0.212
RRIRWRPPRLPRPRPRPHESPRP	-0.262
RRIRKRPPRLPRPRPRPRKRPRP	1.04
RRIRRRPPRLPRPRPRPRWHPRP	0.353
RRIRPRPPRLPRPRPRPWYQPRP	-0.0967
RRIRKRPPRLPRPRPRPNRCPRP	0.0393
RRIRERPPRLPRPRPRPATAPRP	0.147
RRIRWRPPRLPRPRPRPLPMPRP	0.105
RRIRTRPPRLPRPRPRPGDLPRP	-0.0395
RRIRIRPPRLPRPRPRPINCPRP	-0.0883
RRIRWRPPRLPRPRPRPEHPPRP	0.16
RRIRFRPPRLPRPRPRPFWDPRP	-0.374
RRIRVRPPRLPRPRPRPMTCPRP	-0.141
RRIRGRPPRLPRPRPRPAPCPRP	0.426
RRIRLRPPRLPRPRPRPNWHPRP	-0.0136
RRIRSRPPRLPRPRPRPRSFPRP	0.124

Sequence	shrunken log2 fold change
RRIRRRPPRLPRPRPRPDWDPRP	-0.0829
RRIRPRPPRLPRPRPRPYKGPRP	-0.437
RRIRPRPPRLPRPRPRPRTDPRP	0.165
RRIRFRPPRLPRPRPRPFIMPRP	-0.655
RRIRMRPPRLPRPRPRPWWRPRP	0.494
RRIRIRPPRLPRPRPRPLVPPRP	-0.33
RRIRGRPPRLPRPRPRPCMQPRP	-0.0315
RRIRERPPRLPRPRPRPHLFPRP	-0.178
RRIRTRPPRLPRPRPRPHNKPRP	-0.702
RRIRYRPPRLPRPRPRPKFRPRP	-0.102
RRIRGRPPRLPRPRPRPGCQPRP	1.17
RRIRIRPPRLPRPRPRPFNSPRP	-0.384
RRIRNRPPRLPRPRPRPINIPRP	0.00587
RRIRERPPRLPRPRPRPNPKPRP	-0.0343
RRIRFRPPRLPRPRPRPGMNPRP	-0.147
RRIRERPPRLPRPRPRPSQSPRP	-0.346
RRIRPRPPRLPRPRPRPDKRPRP	0.00792
RRIRSRPPRLPRPRPRPKWCPRP	-0.132
RRIRNRPPRLPRPRPRPVDNPRP	0.104
RRIRPRPPRLPRPRPRPFLPPRP	-0.0925
RRIRHRPPRLPRPRPRPNIAPRP	-0.112
RRIRDRPPRLPRPRPRPIPMPRP	-0.00947
RRIRGRPPRLPRPRPRPSWCPRP	0.013
RRIRIRPPRLPRPRPRPYVVPRP	-1.54
RRIRMRPPRLPRPRPRPMHYPRP	-0.221

Sequence	shrunken log2 fold change
RRIRFRPPRLPRPRPRPQKKPRP	-0.0897
RRIRRRPPRLPRPRPRPWGTPRP	-0.0589
RRIRDRPPRLPRPRPRPNKGPRP	-0.00129
RRIRPRPPRLPRPRPRPDTCPRP	-0.594
RRIRCRPPRLPRPRPRPLFWPRP	0.153
RRIRYRPPRLPRPRPRPTREPRP	-0.145
RRIRQRPPRLPRPRPRPVRPPRP	0.162
RRIRYRPPRLPRPRPRPKHGPRP	-0.413
RRIRLRPPRLPRPRPRPKIRPRP	-0.128
RRIRPRPPRLPRPRPRPMNGPRP	0.137
RRIRIRPPRLPRPRPRPHKAPRP	-0.0133
RRIRFRPPRLPRPRPRPCSSPRP	0.0898
RRIRFRPPRLPRPRPRPWTSPRP	-0.0445
RRIRIRPPRLPRPRPRPIALPRP	-0.149
RRIRYRPPRLPRPRPRPYLEPRP	-1.7
RRIRNRPPRLPRPRPRPRIPPRP	0.157
RRIRVRPPRLPRPRPRPLKWPRP	-0.235
RRIRPRPPRLPRPRPRPRAFPRP	0.32
RRIRSRPPRLPRPRPRPTPGPRP	0.451
RRIRFRPPRLPRPRPRPRGEPRP	0.125
RRIRIRPPRLPRPRPRPAYNPRP	-0.111
RRIRLRPPRLPRPRPRPYLDPRP	0.0027
RRIRARPPRLPRPRPRPHPAPRP	0.478
RRIRARPPRLPRPRPRPNIFPRP	0.0429
RRIRMRPPRLPRPRPRPKCGPRP	0.574
